Laboratory results as given in FireProtDB (doi:10.1021/bi000610b).
Several values for one entry are separate records, joined by “and”; a condition that tells them apart may be missing. Identical values can stand only once.

Details: Chlamydomonas reinhardtii, Thermal, glycine-HCl 10 mM, reversible: yes, whole UniProt chain shown

B1: Thioredoxin H-type wild type, P80028 (protein)
chain: MGGSVIVIDSKAAWDAQLAKGKEEHKPIVVDFTATWCGPCKMIAPLFETLSNDYAGKVIFLKVDVDAVAAVAEAAGITAMPTFHVYKDGVKADDLVGASQDKLKALVAKHAAA
Tm (pH 2.13, Fluorescence): 35.4 °C | unfolding enthalpy (van 't Hoff) (pH 2.13, Fluorescence): 23.4 kcal/mol | Tm (pH 2.25, CD): 37.7 °C and 34.5 °C | unfolding enthalpy (van 't Hoff) (pH 2.25, CD): 21.5 kcal/mol and 17.9 kcal/mol | Tm (pH 2.25, DSC): 40 °C | Tm (pH 2.25, Fluorescence): 42.7 °C | unfolding enthalpy (van 't Hoff) (pH 2.25, Fluorescence): 31.8 kcal/mol | Tm (pH 2.5, CD): 47.3 °C and 46.6 °C | unfolding enthalpy (van 't Hoff) (pH 2.5, CD): 42.5 kcal/mol and 38.5 kcal/mol | Tm (pH 2.5, DSC): 51.1 °C | unfolding enthalpy (calorimetric) (pH 2.5, DSC): 52.6 kcal/mol | Tm (pH 2.5, Fluorescence): 49.2 °C | unfolding enthalpy (van 't Hoff) (pH 2.5, Fluorescence): 40.9 kcal/mol | Tm (pH 2.75, CD): 57.5 °C and 53.4 °C | unfolding enthalpy (van 't Hoff) (pH 2.75, CD): 59.5 kcal/mol and 54.2 kcal/mol | Tm (pH 3, CD): 63 °C and 61.4 °C | unfolding enthalpy (van 't Hoff) (pH 3, CD): 76.5 kcal/mol and 65.2 kcal/mol | Tm (pH 3, DSC): 66.4 °C | unfolding enthalpy (calorimetric) (pH 3, DSC): 77.4 kcal/mol | Tm (pH 3, Fluorescence): 65.3 °C | unfolding enthalpy (van 't Hoff) (pH 3, Fluorescence): 66.9 kcal/mol | Tm (pH 3.25, DSC): 73.6 °C | unfolding enthalpy (calorimetric) (pH 3.25, DSC): 80.8 kcal/mol
